Data reported in patent publication US6570069B1, “Nucleic acids encoding plant inhibitors of apoptosis and transgenic cells and plants expressing them” (priority 2000, dated 2003).
Entries after “also recorded” stand apart in the source; their conditions may differ.

Legend:
[1] = test system: caspase-9-induced caspase activation and apoptosis in 293T cells; experiment: Caspase-9 overexpression in 293T cells: caspase activity and apoptosis; type: cell-based, human; conditions: 24-36 hours after transfection
Procedure: HEK293 and 293T cells were maintained in DMEM (Irvine Scientific) supplemented with 10% fetal bovine serum, 1 mM L-glutamine and antibiotics. 293 cells (10^6) were co-transfected using Superfect with 0.1 μg Green Fluoresence Protein (GFP) marker plasmid pEGFP (Clontech), 0.25 ug of either pcDNA3-Bax or pcDNA3-Fas, and 1.5 μg of either pcDNA3myc-SfIAP or pcDNA3myc-CpIAP. Alternatively, cells were co-transfected with 0.35 μg pcDNA3-caspase-9-Flag and 2.1 μg of either SfIAP or CpIAP. […] In some cases, lysates were prepared from transfected cells, normalized for total protein content, and analyzed by SDS-PAGE/immunoblotting as described (Deveraux, Q., et al., (1997) supra; Deveraux, Q. L., et al. (1998) supra; Roy, N. et al. (1997) supra; Takahashi, R., et al., (1998), supra.).
To test this hypothesis, 293T cells were transfected with plasmids encoding pro-caspase-9 alone or in combination with SfIAP and CpIAP. Caspase activity and apoptosis were then assayed 24-36 hours later.

caspase-7 = molecular target: T1, caspase-7 (Homo sapiens, UniProt P55210); experiment: Binding to recombinant purified caspase-7; design: species or system mammalian
T1 construct: His6 (C); made in house
T1 sequence (P55210 24-198 limits assumed): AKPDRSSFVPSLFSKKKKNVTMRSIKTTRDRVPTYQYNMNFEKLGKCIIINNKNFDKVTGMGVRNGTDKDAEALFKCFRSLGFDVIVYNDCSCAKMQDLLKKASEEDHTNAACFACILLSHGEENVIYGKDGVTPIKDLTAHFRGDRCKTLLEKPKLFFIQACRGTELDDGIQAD
T1 sequence (P55210 207-303 limits assumed): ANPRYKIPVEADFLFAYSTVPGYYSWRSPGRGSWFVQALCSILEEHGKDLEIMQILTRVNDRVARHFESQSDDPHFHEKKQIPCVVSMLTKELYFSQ
Procedure: pGEX4T-1-SfIAP and pGEX4T-1 -CpIAP plasmids were introduced into E. coli strain BL21 (DE3) containing the plasmid pT-Trx. GST fusion proteins were obtained by induction with 0.05 mM IPTG at 25° C. for 8 hours, then purified using glutathione-Sepharose, essentially as described (Deveraux, Q., Welsh, K. & Reed, J. Methods of Enzymology in press). Caspases-3, and -7, containing C-terminal His6-tags, and caspase-8 containing an N-terminal His6-tag were purified as described previously (Stennicke, H. R. & Salvesen, G. S. (I1997) J. Biol. Chem. 272, 25719-25723; Stennicke, H., et al., (1998) J. Biol. Chem. 273, 27084-27090; Stennicke, H., et al., (1999) J. Biol. Chem. 274, 8359-8362). Caspase-9 lacking the CARD domain (ΔCARD-caspase-9) was constructed by truncating the cDNA and introducing a start codon substituting Val139. The resulting cDNA was subcloned into pET-23b and expressed in BL21 (DE3), yielding fully processed enzyme when cells were induced using 0.2 mM IPTG at OD600=0.6 for 4 hrs (Stennicke, H., Deveraux, Q., Humike, E., Reed, J., Dixit, V. & Salvesen, G. (1999) J. Biol. Chem. 274, 8359-8362). […] Concentrations of purified enzymes were determined from absorbance at 280 nm based on the molar absorption coefficients: caspase-3 (A280=26,000M−1 cm−1), caspase-7 (A280=24,500 M−1 cm−1), caspase-9 (A280=30,010M−1 cm−1). […]

pro-caspase-9 = molecular target: T2, pro-caspase-9 (Homo sapiens, UniProt P55211); experiment: GST pull-down binding of [35S]-pro-caspase-9; design: species or system mammalian; conditions: GST fusion protein on glutathione-Sepharose
T2 construct: host or cells: cell-free in vitro transcription/translation
T2 sequence (P55211 1-416): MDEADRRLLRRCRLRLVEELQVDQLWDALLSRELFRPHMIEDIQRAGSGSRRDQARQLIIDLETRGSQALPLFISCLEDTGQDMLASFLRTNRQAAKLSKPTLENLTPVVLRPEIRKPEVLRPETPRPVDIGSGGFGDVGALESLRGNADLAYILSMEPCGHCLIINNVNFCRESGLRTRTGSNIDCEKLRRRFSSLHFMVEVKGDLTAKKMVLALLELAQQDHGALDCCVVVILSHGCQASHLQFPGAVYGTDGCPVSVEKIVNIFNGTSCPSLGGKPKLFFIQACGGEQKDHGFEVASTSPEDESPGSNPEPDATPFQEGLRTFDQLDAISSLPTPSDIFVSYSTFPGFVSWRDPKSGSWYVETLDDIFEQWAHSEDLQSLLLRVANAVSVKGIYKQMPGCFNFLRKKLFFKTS
Procedure: [^35S]Pro-caspase-9 was in vitro transcribed and translated in the presence of [^35S]L-methionine using TNT kit from Promega. Protein were desalted and exchanged into buffer (20 mM HEPES pH 7.5, 10 mM KCl, 1.5 mM MgCl2, 1 mM EDTA and 1 mM DTT) with Bio-spin P-6 columns (Bio-Rad). […] After incubation at 4 ° C. for 1 hour, beads were removed by centrifugation and washed twice with 0.5 ml of 50 mM Tris (pH 7.5), 150 mM NaCl, 2 mm DTT before analysis by SDS-PAGE and autoradiography.

[2] = test system: recombinant active caspase-9; experiment: Enzyme inhibition assay with recombinant active caspase-9 and Ac-LEHD-AFC; type: biochemical, mammalian; conditions: Ac-LEHD-AFC substrate
Procedure: pGEX4T-1-SfIAP and pGEX4T-1 -CpIAP plasmids were introduced into E. coli strain BL21 (DE3) containing the plasmid pT-Trx. GST fusion proteins were obtained by induction with 0.05 mM IPTG at 25° C. for 8 hours, then purified using glutathione-Sepharose, essentially as described (Deveraux, Q., Welsh, K. & Reed, J. Methods of Enzymology in press). Caspases-3, and -7, containing C-terminal His6-tags, and caspase-8 containing an N-terminal His6-tag were purified as described previously (Stennicke, H. R. & Salvesen, G. S. (I1997) J. Biol. Chem. 272, 25719-25723; Stennicke, H., et al., (1998) J. Biol. Chem. 273, 27084-27090; Stennicke, H., et al., (1999) J. Biol. Chem. 274, 8359-8362). Caspase-9 lacking the CARD domain (ΔCARD-caspase-9) was constructed by truncating the cDNA and introducing a start codon substituting Val139. The resulting cDNA was subcloned into pET-23b and expressed in BL21 (DE3), yielding fully processed enzyme when cells were induced using 0.2 mM IPTG at OD600=0.6 for 4 hrs (Stennicke, H., Deveraux, Q., Humike, E., Reed, J., Dixit, V. & Salvesen, G. (1999) J. Biol. Chem. 274, 8359-8362). All expressed caspases were purified by Ni-chelation affinity-chromatography, as described (Stennicke, H., et al., (1999) J. Biol. Chem. 274, 8359-8362; Stennicke, H. R. & Salvesen, G. S. (1997) J. Biol. Chem. 272, 25719-25723; Stennicke, H., et al., (1998) supra). Concentrations of purified enzymes were determined from absorbance at 280 nm based on the molar absorption coefficients: caspase-3 (A280=26,000M−1 cm−1), caspase-7 (A280=24,500 M−1 cm−1), caspase-9 (A280=30,010M−1 cm−1).
Caspase activity was assayed by release of 7-amino-4-trifluoromethyl-coumarin (AFC) from Ac-DEVD or Ac-LEHD-containing synthetic peptides (Calbiochem) using continuous-reading instuments as described (Quan, L. T. et al., (1995) J. Biol. Chem. 270:10377-10379).
To directly examine the possibility that SfIAP and CpLAP inhibit caspase-9, enzyme inhibition assays were performed using bacteria-produced recombinant active caspase-9, recombinant-purified SfIAP and CpIAP, and Ac-LEHD-AFC as a caspase-9 substrate.

B1: CpIAP: baculoviral (CpGV) inhibitor of apoptosis protein; complete ORF expressed myc-tagged or as GST-fusion (protein)
chain: MSDLRLEEVRLNTFEKWPVSFLSPETMAKNGFYYLGRSDEVRCAFCKVEIMRWKEGEDPAADHKKWAPQCPFVKGIDVCGSIVTTNNIQNTTTHDTIIGPAHPKYAHEAARVKSFHNWPRCMKQRPEQMADAGFFYTGYGDNTKCFYCDGGLKDWEPEDVPWEQHVRWFDRCAYVQLVKGRDYVQKVITEACVLPGENTTVSTAAPVSEPIPETKIEKEPQVEDSKLCKICYVEECIVCFVPCGHVVACAKCALSVDKCPMCRKIVTSVLKVYFS
modifications: left off: a dimerising Fc or GST
notes: complete ORF expressed myc-tagged or as GST-fusion
[1]
  inhibition of caspase-9-induced apoptosis: inhibited caspase-9-induced apoptosis
  suppression of activation of downstream DEVD-cleaving caspases induced by overexpression of caspase-9: markedly suppressed activation of downstream DEVD-cleaving caspases
caspase-7
  binding to caspase-7: neither bound
pro-caspase-9
  binding to pro-caspase-9 (autoradiography): associated with pro-caspase-9
[2]
  inhibition of recombinant active caspase-9: inhibited recombinant active caspase-9 in a concentration-dependent manner; also recorded: direct inhibitors of mammalian caspase-9
  molar-excess relative to caspase-9 which produced ~50% inhibition of protease activity: 12 fold

B2: SfIAP: cellular IAP cloned from Spodoptera frugiperda, protein of 377 amino acids (SEQ ID NO:3); GST-fusion when recombinant (protein, listed as Spodoptera frugiperda)
chain: MWSCSLPCWNTKKSGLQMDITKVASNGSSSTLTLFKSGSLEAKIRPLAPLMLPTPSYDSNAGSPSLSPSTPCSSSSFSIDKTDNHDTFGFSADTVDMRKEDERMKTFEKWPVSFLSGEQLARNGFYYLGRRDEARCAFCKVEIMRWVEGDDPAKDHQRWAPQCPFVRKLNGTAAADTGSSGQDECGARAAPSGTSPPRMAGPVHPRYASEAARLRSFKDWPRCMRQKPEELAEAGFFYTGQGDKTKCFYCDGGLKDWENHDVPWEQHARWFDRCAYVQLVKGREYVQKVISEACEVSASEAERDVAPARTAEPSPPAEAPENSVDDSKLCKICYAEERNVCFVPCGHVVACAKCALAADKCPMCRRTFQNAVRLYFS
modifications: GST fusion when recombinant; fall armyworm inhibitor of apoptosis protein (SfIAP)
[1]
  inhibition of caspase-9-induced apoptosis: inhibited caspase-9-induced apoptosis
  suppression of activation of downstream DEVD-cleaving caspases induced by overexpression of caspase-9: markedly suppressed activation of downstream DEVD-cleaving caspases
caspase-7
  binding to caspase-7: neither bound
pro-caspase-9
  binding to pro-caspase-9 (autoradiography): associated with pro-caspase-9
[2]
  inhibition of recombinant active caspase-9: inhibited recombinant active caspase-9 in a concentration-dependent manner; also recorded: direct inhibitors of mammalian caspase-9
  molar-excess relative to caspase-9 which produced ~50% inhibition of protease activity: 8 fold
